# From the supplement of paper PMC12764529
# ± gives the half width of the 95% confidence interval.
# Tests used:
# [1] = folding stability dG unfold (combined trypsin and chymotrypsin); higher = more stable
# Procedure, shortened: (§1)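 Digests were run with trypsin and chymotrypsin at 11 concentrations in threefold dilutions, plus a no-protease condition, on designed mini-proteins in a PA-tagged cDNA display construct. The mini-proteins were under 80 residues, had no cysteine, and were kept only when AlphaFold2 dimer inter-PAE was above 15. After sequencing, Bayesian fitting of the counts gave K50, from which unfolding free energy was derived against a sequence-predicted unfolded-state K50 and a shared folded-state K50, per protease or combined.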
# [2] = folding stability dG unfold from chymotrypsin proteolysis; higher = more stable
# Procedure, shortened: as §1
# [3] = folding stability dG unfold from trypsin proteolysis; higher = more stable
# Procedure, shortened: as §1
Sequence,folding stability dG unfold [1] [kcal/mol],folding stability dG unfold [2] [kcal/mol],folding stability dG unfold [3] [kcal/mol]
SAGGSAGGSAGEPEIEIEVEERDGELVLRARVRDRETGEEYEVVVRVRPDGPIEITEIRPSAGGSAGGSAGG [r17_113_TrROS_Hall],2.72 ± 0.13,2.55 ± 0.13,3.11 ± 0.13
SAGGSAGGSAGEPEYVRVRIRVRRRVRNKETGKWEEKEVELTLVFPSKEEALKALEELGLSAGGSAGGSAGG [r11_984_TrROS_Hall],4.02 ± 0.051,4.049 ± 0.037,3.99 ± 0.083
SAGGSAGGSAGEPKLILVEVEGYPDPESNLVYVEFPNGDIATFAVDSAAPDQPVLVLVNPSAGGSAGGSAGG [r11_621_TrMRF],0.28 ± 0.045,-0.0185 ± 0.065,0.378 ± 0.044
SAGGSAGGSAGEPVEVTPLSTETVPDSDTTVTYYKVTYPGGKEAIRTVYSDGTETTTPLPSAGGSAGGSAGG [r11_637_JUSTAS],0.969 ± 0.17,1.02 ± 0.1,0.915 ± 0.12
SAGGSAGGSAGERLTADELRKLAEELGLPAEITVERKEDGTYTVTITVDGKTYKIEIKLDSAGGSAGGSAGG [r11_410_TrROS_Hall],3.16 ± 0.15,3.44 ± 0.1,2.38 ± 0.096
SAGGSAGGSAGETVTLTLTVTVTRTYYDAETGEEVEQETETRTLTLTMSKEELERLLKELSAGGSAGGSAGG [r17_283_TrROS_Hall],4.44 ± 0.17,4.66 ± 0.11,3.28 ± 0.13
SAGGSAGGSAGEVEFELTVKLTVTHPSGGKSEIEVPVKITLPVVDISKEILESNPEVVKKANSAGGSAGGSA [r18_114_TrMRF],-0.108 ± 0.3,-0.964 ± 0.33,0.486 ± 0.11
SAGGSAGGSAGEVEIEITKVTENEDGSETLEMTIRDKDTGKTYKLTFNKDNGILTLEEEPSAGGSAGGSAGG [r11_991_TrROS_Hall],2.43 ± 0.2,3.05 ± 0.097,1.93 ± 0.13
SAGGSAGGSAGEVTVPAVVPPDAVPEVVEAVERLGARAEVEWDPETGLYRVNITFDGEVGSAGGSAGGSAGG [r11_1043_TrMRF],0.604 ± 0.07,0.901 ± 0.06,-0.00326 ± 0.067
SAGGSAGGSAGEVVLSPTDKTLTLTSFDPKTGVTYYTVFYPATGTTSTTSTGNLESLIAASAGGSAGGSAGG [r17_300_JUSTAS],0.929 ± 0.084,0.531 ± 0.13,1.25 ± 0.024
SAGGSAGGSAGFFRVDIDIMMSPEMLDLMKKNPGLPPGQEIPIMVVIKREPVPYDPNGKLSAGGSAGGSAGG [r17_194_TrROS],1.8 ± 0.051,2.1 ± 0.043,1.375 ± 0.013
SAGGSAGGSAGFKLPPGQEVVFQVSIKLPDGPTQTLEDLENMPPENIDFLEIEISWVPVDSAGGSAGGSAGG [r11_899_TrROS],1.57 ± 0.2,1.81 ± 0.12,1.09 ± 0.14
SAGGSAGGSAGFKVPPGWKIVNTYRSPESGYPTAILRDPGDNKPLIFDFDNGKIMPAKDISAGGSAGGSAGG [r11_268_TrROS],-0.178 ± 0.55,-0.535 ± 0.69,0.291 ± 0.11
SAGGSAGGSAGFNIRIVNVEITGNKLTIYLPNGWVITIKFNKNGNINMKIEDIKPLPPGASAGGSAGGSAGG [r17_173_TrROS],3.61 ± 0.14,3.98 ± 0.064,3.02 ± 0.16
SAGGSAGGSAGGAEEIARKLAEETGKKVTIRIRLPNGEVYEIELDEPLEEIEGAEIVEIESAGGSAGGSAGG [r7_998_TrROS_Hall],1.43 ± 0.061,1.79 ± 0.036,0.639 ± 0.018
SAGGSAGGSAGGAEELAKELAEKLGLEKKKVLIKLPNGKVVEVTIEDLKKLNLKNAEIVPSAGGSAGGSAGG [r7_863_TrROS_Hall],0.786 ± 0.18,0.492 ± 0.12,0.906 ± 0.052
SAGGSAGGSAGGAIVTTTTTKAPVFAPDGTVVAEITTTTVTVILPETPPSLLPEVLERLASAGGSAGGSAGG [r7_450_JUSTAS],0.681 ± 0.16,0.801 ± 0.076,0.553 ± 0.06
SAGGSAGGSAGGALLVTPTPDGYIARVKDPNSDSWTVVPLSPEELEELAAAGVPTVEVLPSAGGSAGGSAGG [r7_266_JUSTAS],1.09 ± 0.16,1.46 ± 0.064,-0.336 ± 0.32
SAGGSAGGSAGGASLKVVEREVEYYDPETGETVRVKALVTVDPNSDKEILDPEEKEKLLSSAGGSAGGSAGG [r7_557_JUSTAS],0.907 ± 0.087,0.795 ± 0.016,1.02 ± 0.034
SAGGSAGGSAGGAVTPETIELPDATITVYTYPEGVVVEVTDPETGQATVISPEEFERLLASAGGSAGGSAGG [r7_372_JUSTAS],1.5 ± 0.057,1.21 ± 0.034,1.78 ± 0.044
SAGGSAGGSAGGDEEAIKEAAAAAPKDTTTVPVLLPDGKEVTLEVTWHPDGSRTITVRQSAGGSAGGSAGGS [r10_1017_JUSTAS],1.15 ± 0.072,1.6 ± 0.098,-0.0882 ± 0.15

Sequence,folding stability dG unfold [1] [kcal/mol],folding stability dG unfold [2] [kcal/mol],folding stability dG unfold [3] [kcal/mol]
SAGGSAGGSAGGDERVEVFEFDAPGGYRVRLVDFGDLALVAFISPDGRPAVIPVPRELLSAGGSAGGSAGGS [r10_1075_TrMRF],1.41 ± 0.044,1.87 ± 0.035,0.529 ± 0.041
SAGGSAGGSAGGDESYRKLLEELPLPVTEIVVETVPLPETDEPITVVTPKNPDGKEVTLGSAGGSAGGSAGG [r7_337_JUSTAS],-0.284 ± 0.14,-0.557 ± 0.084,-0.0426 ± 0.037
SAGGSAGGSAGGDEVLVFETETVELEVEVRTLNEDGEETTEKEKVTLTVTRVVRLPPGLLSAGGSAGGSAGG [r7_926_TrROS_Hall],0.959 ± 0.44,1.15 ± 0.24,0.827 ± 0.083
SAGGSAGGSAGGDKDDKPPVRTVTVMHMFFDENGWLVKFDITFTANGQIEIDWGPVPLPSAGGSAGGSAGGS [r10_682_TrROS],3.52 ± 0.5,3.8 ± 0.42,2.96 ± 0.3
SAGGSAGGSAGGDKKDPGQPRQEVEIEIPVYDPNGKPKGPIEITMPAGQSLDEIADEIFNSAGGSAGGSAGG [r7_110_TrROS],0.937 ± 0.13,1.05 ± 0.049,0.758 ± 0.068
SAGGSAGGSAGGDKNKPPKLKVKLKIEFPFTLPDGVKVRLEVEIDLDSDVIEPRAEVIDSSAGGSAGGSAGG [r7_213_TrMRF],2.64 ± 0.081,2.98 ± 0.086,1.76 ± 0.035
SAGGSAGGSAGGDLVITEVRVEFDPKDGTLRVTARFELPNTGETVEVTLEFEIPYPDGASAGGSAGGSAGGS [r10_296_TrMRF],2.85 ± 0.32,2.86 ± 0.15,2.99 ± 0.35
SAGGSAGGSAGGDNFEIEPDISWNPDYGYISIDWTVTIGGKEQPFTIMIPVRLPPPPEDDSAGGSAGGSAGG [r7_413_TrROS],1.14 ± 0.22,0.712 ± 0.15,1.41 ± 0.099
SAGGSAGGSAGGDPKAKPKKYYLIDLNARLVGVEVDPETGELTVTYELEGATLTLRFEGSAGGSAGGSAGGS [r10_962_TrMRF],2.65 ± 0.14,2.78 ± 0.045,2.24 ± 0.1
SAGGSAGGSAGGDPLPVTFTIPLEDDTTAKAVLSGDLVEVTIPNGKKYVLIPNPAVLGSSAGGSAGGSAGGS [r10_1176_TrMRF],-0.216 ± 0.15,-0.232 ± 0.22,-0.144 ± 0.11
SAGGSAGGSAGGDPNDKPKEERRIKIKVRPTNVQRDPDNGMLWYSWRLEGLSITIMIPASAGGSAGGSAGGS [r10_962_TrROS],2.85 ± 0.1,3.43 ± 0.035,1.86 ± 0.08
SAGGSAGGSAGGEDLKINIKISEITFSPDGWITMSMRGGNGRWFQHTIKVKIKLPPGDPSAGGSAGGSAGGS [r10_281_TrROS],3 ± 0.12,3.15 ± 0.038,2.77 ± 0.14
SAGGSAGGSAGGEEEYVTLTIKVYDPKTREPVKEITIVLPKKNMTPEQLRELLKELGIEVSAGGSAGGSAGG [r7_903_TrROS_Hall],2.98 ± 0.23,3.01 ± 0.083,2.87 ± 0.12
SAGGSAGGSAGGEEKEVYLVRFRRPDGSEVTVVAPWEDLEEIVKSLPEAVEVEVEKAPLSAGGSAGGSAGGS [r10_437_TrMRF],1.98 ± 0.17,2.22 ± 0.089,1.58 ± 0.042
SAGGSAGGSAGGEIKVEVVPVDGKLRVKVTLEDGEKIEIEVPENTTLDELKKLAEELAKKSAGGSAGGSAGG [r7_265_TrROS_Hall],1.94 ± 0.11,2.12 ± 0.077,1.55 ± 0.083
SAGGSAGGSAGGEKIIKVHPDNIEAFLKEAKEKGYKVILFPNGEAIVNGKKVKIISDPKSAGGSAGGSAGGS [r10_930_TrMRF],1.74 ± 0.18,1.73 ± 0.074,1.36 ± 0.12
SAGGSAGGSAGGEKKWIFMVSFRHPDGKERKFTFPWNDLEEIKENLPGIDDVEIEWMPMSAGGSAGGSAGGS [r10_437_TrROS],0.773 ± 0.19,0.961 ± 0.28,-0.025 ± 0.2
SAGGSAGGSAGGEKTIVISEEEAEKLAKELEKKGLTVERKPDGTLKVNGKEIRIIVVEPSAGGSAGGSAGGS [r10_930_TrROS_Hall],0.814 ± 0.17,0.858 ± 0.07,0.758 ± 0.077
SAGGSAGGSAGGELKLLRIEVTGRAPYPTELLKTVEIVLPNEDVTEEQIRELLKELGIELSAGGSAGGSAGG [r7_903_TrMRF],0.0188 ± 0.19,-0.505 ± 0.26,0.226 ± 0.046
SAGGSAGGSAGGELKLLSVEEGPNETYTVSSSDGKLTVYTKPPDGSWKSTSLPLEPELLSAGGSAGGSAGGS [r10_99_JUSTAS],0.194 ± 0.1,0.317 ± 0.14,-0.277 ± 0.057
SAGGSAGGSAGGENNWMIFIEIKIEWEIKPTPDGKWKWEPEIEIKSIRIMPPNSPAAKDLSAGGSAGGSAGG [r7_889_TrROS],2.6 ± 0.24,2.51 ± 0.1,2.95 ± 0.18
